Consider five molecules from paper PMC8034648, “Oligomeric complexes formed by Redβ single strand annealing protein in its different DNA bound states”.

Data set [1] has as its target T1, Redβ single strand annealing protein (bacteriophage λ, UniProt P03698).
T1 sequence: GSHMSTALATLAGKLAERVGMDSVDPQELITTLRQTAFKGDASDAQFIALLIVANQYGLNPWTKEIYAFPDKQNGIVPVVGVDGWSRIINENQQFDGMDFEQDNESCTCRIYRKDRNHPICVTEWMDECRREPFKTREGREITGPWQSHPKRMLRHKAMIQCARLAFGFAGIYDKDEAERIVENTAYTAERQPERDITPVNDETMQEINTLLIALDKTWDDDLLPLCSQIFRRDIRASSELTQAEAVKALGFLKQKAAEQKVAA
As to the kind of experiment: SEC-MALS; strands added sequentially, PBS; 358 kDa, n=11.3; EMSA: 10 uM Redβ, 50 uM nt DNA, 37 C, in PBS, or 20 mM Tris-HCl pH 7.5/10 mM NaCl/10 mM MgCl2, or 50 mM ammonium acetate pH 7.0; SEC-MALS: PBS, complexes formed. As to conditions: protein: recombinant; tags: N-terminal GSH left after thrombin removal of 6xHis; chain copies: 11; blunt. (In general: In gel filtration, larger molecules generally elute earlier.)

For data set [2], the target named is T1, Redβ single strand annealing protein. As to the kind of experiment: EMSA; strands added sequentially, either order; EMSA: 10 uM Redβ, 50 uM nt DNA, 37 C, in PBS, or 20 mM Tris-HCl pH 7.5/10 mM NaCl/10 mM MgCl2, or 50 mM ammonium acetate pH 7.0; SEC-MALS: PBS, complexes formed. The note with it: protein: recombinant; tags: N-terminal GSH left after thrombin removal of 6xHis; chain copies: 11; label: 5'-Cy5 on strand 1, 5'-Cy3 on strand 2; 5' overhangs 1 nt (49 bp). Background: In EMSA bound probe runs differently from free probe, usually more slowly.

The target is the same in data set [3]. As to the kind of experiment: SEC-MALS; PBS; 653 kDa, n=21.1; EMSA: 10 uM Redβ, 50 uM nt DNA, 37 C, in PBS, or 20 mM Tris-HCl pH 7.5/10 mM NaCl/10 mM MgCl2, or 50 mM ammonium acetate pH 7.0; SEC-MALS: PBS, complexes formed. The note with it: protein: recombinant; tags: N-terminal GSH left after thrombin removal of 6xHis; chain copies: 11.
Data set [4] shares this target. As to the kind of experiment: native MS; strands added sequentially, 1 uM Redβ; 22 subunits, one copy of each strand; EMSA: 10 uM Redβ, 50 uM nt DNA, 37 C, in PBS, or 20 mM Tris-HCl pH 7.5/10 mM NaCl/10 mM MgCl2, or 50 mM ammonium acetate pH 7.0; SEC-MALS: PBS, complexes formed. As to conditions: protein: recombinant; tags: N-terminal GSH left after thrombin removal of 6xHis; chain copies: 11; 3' overhang 4 nt on strand 2.

For data set [5] the target is unchanged. As to the kind of experiment: SEC-MALS; strands added sequentially, PBS; 591 kDa, n=18.2; EMSA: 10 uM Redβ, 50 uM nt DNA, 37 C, in PBS, or 20 mM Tris-HCl pH 7.5/10 mM NaCl/10 mM MgCl2, or 50 mM ammonium acetate pH 7.0; SEC-MALS: PBS, complexes formed. As to conditions: protein: recombinant; tags: N-terminal GSH left after thrombin removal of 6xHis; chain copies: 11; blunt.

B1: dT38:dA38 (dsDNA)
DNA 1: TTTTTTTTTTTTTTTTTTTTTTTTTTTTTTTTTTTTTT
DNA 2: AAAAAAAAAAAAAAAAAAAAAAAAAAAAAAAAAAAAAA
For B1, in data set [1], the binding result is listed as “binds”.

B2: Cy5 50mer:Cy3 50mer (annealed sequentially or pre-formed) (dsDNA)
DNA 1: CCATCCGCAAAAATCGAGCTATGCAGGGCGATTCTGCTCTAAGCCATCCG
DNA 2: GCGGATGGCTTAGAGCAGAATCGCCCTGCATAGCTCGATTTTTGCGGATG
As to B2, in data set [2], the binding result is on record as “binds”.

B3: 83- (ssDNA)
DNA: TTGCATATTTAAAACATGTTGAGCTACAGCACCAGATTCAGCAATTAAGCTCTAAGCCATCCGCAAAAATGACCTCTTATCAA
B3: the binding result in data set [3] is on record as “binds”.

B4: 83-:87+ (dsDNA)
DNA 1: B3 DNA
DNA 2: TTGATAAGAGGTCATTTTTGCGGATGGCTTAGAGCTTAATTGCTGAATCTGGTGCTGTAGCTCAACATGTTTTAAATATGCAATGAC
B4: in data set [4], the binding result was “binds”.

B5: 83-:83+ (dsDNA)
DNA 1: B3 DNA
DNA 2: TTGATAAGAGGTCATTTTTGCGGATGGCTTAGAGCTTAATTGCTGAATCTGGTGCTGTAGCTCAACATGTTTTAAATATGCAA
For the molecule B5, the binding result in data set [5] was “binds”.
